{"source": "patent EP4674437A1", "key": {"[1]": {"molecular_target": "Human DLL3 full-length protein (human)", "experiment": "FACS on H1184 cells"}, "[2]": {"molecular_target": "Human DLL3 full-length protein (human)", "experiment": "cell-based or functional assay"}, "[3]": {"molecular_target": "Cynomolgus monkey DLL3 full-length protein (cynomolgus monkey)", "experiment": "FACS on cynoDLL3/CHO-s cells"}}}
{"substance": "BI-764532 (antibody)", "values": [{"measurement": "EC50", "setting": "[1]", "value": 3.94, "unit": "nM"}, {"measurement": "Emax (geometric MFI)", "setting": "[1]", "value": 1620}, {"measurement": "IC50 (nM), cell killing caused by endocytosis of antibody (DT3C, DMS53/DLL3 cells)", "setting": "[2]", "value": 3.27, "unit": "nM"}, {"measurement": "Imax, cell killing caused by endocytosis of antibody (DT3C, DMS53/DLL3 cells)", "setting": "[2]", "value": 86.5}, {"measurement": "EC50", "setting": "[3]", "value": 3.42, "unit": "nM"}, {"measurement": "Emax (geometric MFI)", "setting": "[3]", "value": 963}]}
